First the molecules themselves.
B1: humanized anti-C5aR antibody hAb-J (antibody)
light: DVVMTQSPLSLPVTLGEPASISCRSSQSLVHSNGNTYLHWYLQKPGQSPQLLIYKVSNRFSGVPDRFSGSGSGTDFTLKISRVEAEDVGVYFCSQSTLVPLTFGQGTKLEIKTVAAPSVFIFPPSDEQLKSGTASVVCLLNNFYPREAKVQWKVDNALQSGNSQESVTEQDSKDSTYSLSSTLTLSKADYEKHKVYACEVTHQGLSSPVTKSFNRGEC
heavy: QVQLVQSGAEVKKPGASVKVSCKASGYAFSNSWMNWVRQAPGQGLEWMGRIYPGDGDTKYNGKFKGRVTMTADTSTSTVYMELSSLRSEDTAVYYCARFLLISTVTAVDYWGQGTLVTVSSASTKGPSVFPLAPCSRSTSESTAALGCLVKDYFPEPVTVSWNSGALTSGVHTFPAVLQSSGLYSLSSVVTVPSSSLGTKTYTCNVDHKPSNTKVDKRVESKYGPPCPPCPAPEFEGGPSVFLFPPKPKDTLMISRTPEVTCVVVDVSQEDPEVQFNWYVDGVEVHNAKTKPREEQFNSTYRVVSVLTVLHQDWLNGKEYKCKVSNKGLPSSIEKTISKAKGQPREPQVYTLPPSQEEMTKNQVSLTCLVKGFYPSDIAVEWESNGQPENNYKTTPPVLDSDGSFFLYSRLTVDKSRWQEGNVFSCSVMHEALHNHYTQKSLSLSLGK
B2: mouse anti-C5aR monoclonal antibody 7F3 (antibody, V domains shown)
VH: QVQLQQSGPELVKPGASVKISCKASGYAFSNSWMNWVKQRPGKGLEWIGRIYPGDGDTKYNGKFKGKATLTADKSSSTAYMQLSSLTSEDSAVYFCARFLLISTVTAVDYWGQGTTLTVSS
VL: DVVMTQSPLSLPVSLGNQASISCRSSQSLVHSNGNTYLHWYLQKPGQSPKLLIYKVSNRFSGVPDRFSGSGSGTDFSLKISRVEAEDLGVYFCSQSTLVPLTFGAGTKLELK
B3: humanized anti-C5aR antibody hAb-Q (antibody)
light: DVVMTQSPLSLPVTLGEPASISCRSSQSLVHSNGNTYLHWYLQKPGQSPQLLIYKVSNRFSGVPDRFSGSGSGTDFTLKISRVEAEDVGVYFCSQSTLVPLTFGQGTKLEIKRTVAAPSVFIFPPSDEQLKSGTASVVCLLNNFYPREAKVQWKVDNALQSGNSQESVTEQDSKDSTYSLSSTLTLSKADYEKHKVYACEVTHQGLSSPVTKSFNRGEC
heavy: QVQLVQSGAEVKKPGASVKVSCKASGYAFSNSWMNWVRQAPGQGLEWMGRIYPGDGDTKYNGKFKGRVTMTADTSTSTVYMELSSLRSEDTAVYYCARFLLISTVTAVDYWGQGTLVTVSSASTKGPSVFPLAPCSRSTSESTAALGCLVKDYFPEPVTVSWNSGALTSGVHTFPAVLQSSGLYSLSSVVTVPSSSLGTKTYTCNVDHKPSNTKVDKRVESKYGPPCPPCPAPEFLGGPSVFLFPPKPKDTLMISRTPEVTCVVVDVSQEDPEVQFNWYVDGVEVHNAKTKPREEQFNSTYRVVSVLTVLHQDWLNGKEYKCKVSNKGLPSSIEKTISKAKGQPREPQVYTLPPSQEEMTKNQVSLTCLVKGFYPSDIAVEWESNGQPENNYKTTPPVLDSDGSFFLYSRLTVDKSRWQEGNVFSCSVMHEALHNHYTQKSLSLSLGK

In the first assay the target is T1, human C5a receptor (UniProt P21730 1-350).
T1 chain: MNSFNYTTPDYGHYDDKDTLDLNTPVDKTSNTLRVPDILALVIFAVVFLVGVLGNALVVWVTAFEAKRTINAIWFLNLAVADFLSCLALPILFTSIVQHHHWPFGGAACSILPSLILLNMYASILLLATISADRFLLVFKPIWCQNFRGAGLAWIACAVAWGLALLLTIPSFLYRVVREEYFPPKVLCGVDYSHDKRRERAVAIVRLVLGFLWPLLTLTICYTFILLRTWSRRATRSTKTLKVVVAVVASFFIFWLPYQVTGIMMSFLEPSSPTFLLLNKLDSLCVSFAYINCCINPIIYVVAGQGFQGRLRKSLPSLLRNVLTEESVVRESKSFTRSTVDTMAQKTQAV
Put plainly: saturation binding to human neutrophils (flow cytometry, MFI); 4 C.
Broadly, the EC50 is the concentration at which the effect is half-maximal. B1 yielded a half-maximal effective concentration (EC50) of 20.1 nM.
For the molecule B2, the half-maximal effective concentration (EC50) was 8.51 nM.
The molecule B3 had an EC50 of 21.6 nM. This EC50 is about 2.5-fold higher than that of the molecule before.

The next assay addresses T1, human C5a receptor. The assay is described as above. This is another data set of the same source.
As usually defined, the Kd is a measure of binding affinity in units of concentration. A higher Kd goes with weaker binding. Molecule B1 returned a Kd of 25.4 nM.
Molecule B2 returned a Kd of 9.2 nM.
On the same count and under the same terms, next, B3: 22.6 nM.

The record behind these values is patent US20110190477A1 (published 2011).
